Numbered stars: 1 amine (or outer) side, 2 acyl side, 3 side chain; on linkers, the order of the positions; unused ones are H or OH. Square brackets hold non-standard residues; d marks the D form. Side chains are listed from the residue outwards. * marks the point of attachment. C20 diacid = O=C(O)CCCCCCCCCCCCCCCCCCC(=O)*; γGlu = O=C(O)[C@H](CCC(=O)[*:2])N[*:1]
T1: human amylin 3(a) receptor (human calcitonin receptor co-expressed with RAMP-3) on BHK570/CRE-luc cells (human, UniProt P30988 25-474; O60896 24-148)
T1 sequence (looked up) 1: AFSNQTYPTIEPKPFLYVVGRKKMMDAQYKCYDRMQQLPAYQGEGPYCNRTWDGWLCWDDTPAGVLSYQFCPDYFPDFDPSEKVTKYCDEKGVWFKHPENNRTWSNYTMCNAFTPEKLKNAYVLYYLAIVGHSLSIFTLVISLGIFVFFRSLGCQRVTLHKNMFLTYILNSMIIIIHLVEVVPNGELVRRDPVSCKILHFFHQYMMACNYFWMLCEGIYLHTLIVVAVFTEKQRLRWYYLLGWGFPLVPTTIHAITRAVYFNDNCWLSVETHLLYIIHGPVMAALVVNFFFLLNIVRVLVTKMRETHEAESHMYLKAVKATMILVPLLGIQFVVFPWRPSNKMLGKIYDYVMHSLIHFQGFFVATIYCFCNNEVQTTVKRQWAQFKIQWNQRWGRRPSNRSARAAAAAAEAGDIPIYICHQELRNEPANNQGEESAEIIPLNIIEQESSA
T1 sequence (looked up) 2: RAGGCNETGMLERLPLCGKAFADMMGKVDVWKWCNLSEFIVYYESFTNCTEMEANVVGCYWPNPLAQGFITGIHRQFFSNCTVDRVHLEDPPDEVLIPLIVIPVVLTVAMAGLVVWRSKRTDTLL

T2: human calcitonin receptor on BHK570/CRE-luc cells (human, UniProt P30988 25-474)
T2 sequence (looked up): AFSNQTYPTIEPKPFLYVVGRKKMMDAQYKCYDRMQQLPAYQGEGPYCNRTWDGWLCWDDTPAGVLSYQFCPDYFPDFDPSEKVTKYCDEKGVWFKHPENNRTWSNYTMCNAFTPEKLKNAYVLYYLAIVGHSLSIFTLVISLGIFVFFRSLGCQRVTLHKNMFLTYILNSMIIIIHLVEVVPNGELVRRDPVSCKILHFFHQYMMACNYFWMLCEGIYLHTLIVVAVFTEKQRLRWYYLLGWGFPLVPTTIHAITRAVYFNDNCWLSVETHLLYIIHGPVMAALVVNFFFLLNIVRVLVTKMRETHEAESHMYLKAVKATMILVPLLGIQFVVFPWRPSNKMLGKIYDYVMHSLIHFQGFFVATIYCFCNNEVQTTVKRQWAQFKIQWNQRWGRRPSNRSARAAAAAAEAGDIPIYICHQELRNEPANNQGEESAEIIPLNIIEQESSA


Legend:
[1] = biological target: T1, human amylin 3(a) receptor (human …); assay: cell-based or functional assay
[2] = biological target: T2, human calcitonin receptor on …; assay: cell-based or functional assay

| Binder | hAmylin-R funct. EC50 (pM), tested with HSA [1] [pM] | hCTR funct. EC50 (pM), tested with HSA [2] [pM] |
| --- | --- | --- |
| {C20 diacid-γGlu}-ASELSTAALGRLSEELHELATLPRTETGSGSP-NH2 (SMILES CC(C)C[C@H](NC(=O)[C@H](C)NC(=O)[C@H](C)NC(=O)[C@@H](NC(=O)[C@H](CO)NC(=O)[C@H](CC(C)C)NC(=O)[C@H](CCC(=O)O)NC(=O)[C@H](CO)NC(=O)[C@H](C)NC(=O)CC[C@H](NC(=O)CCCCCCCCCCCCCCCCCCC(=O)O)C(=O)O)[C@@H](C)O)C(=O)NCC(=O)N[C@@H](CCCNC(=N)N)C(=O)N[C@@H](CC(C)C)C(=O)N[C@@H](CO)C(=O)N[C@@H](CCC(=O)O)C(=O)N[C@@H](CCC(=O)O)C(=O)N[C@@H](CC(C)C)C(=O)N[C@@H](Cc1c[nH]cn1)C(=O)N[C@@H](CCC(=O)O)C(=O)N[C@@H](CC(C)C)C(=O)N[C@@H](C)C(=O)N[C@H](C(=O)N[C@@H](CC(C)C)C(=O)N1CCC[C@H]1C(=O)N[C@@H](CCCNC(=N)N)C(=O)N[C@H](C(=O)N[C@@H](CCC(=O)O)C(=O)N[C@H](C(=O)NCC(=O)N[C@@H](CO)C(=O)NCC(=O)N[C@@H](CO)C(=O)N1CCC[C@H]1C(N)=O)[C@@H](C)O)[C@@H](C)O)[C@@H](C)O) [[N-terminal(C20 diacid-gGlu), des1, 15E, 30S, 31G]mimylin] | 85 | 40 |
| {C20 diacid-γGlu}-ASELSTAALGRLSAELHELATLPRTETGSGSA-NH2 (SMILES CC(C)C[C@H](NC(=O)[C@H](C)NC(=O)[C@H](C)NC(=O)[C@@H](NC(=O)[C@H](CO)NC(=O)[C@H](CC(C)C)NC(=O)[C@H](CCC(=O)O)NC(=O)[C@H](CO)NC(=O)[C@H](C)NC(=O)CC[C@H](NC(=O)CCCCCCCCCCCCCCCCCCC(=O)O)C(=O)O)[C@@H](C)O)C(=O)NCC(=O)N[C@@H](CCCNC(=N)N)C(=O)N[C@@H](CC(C)C)C(=O)N[C@@H](CO)C(=O)N[C@@H](C)C(=O)N[C@@H](CCC(=O)O)C(=O)N[C@@H](CC(C)C)C(=O)N[C@@H](Cc1c[nH]cn1)C(=O)N[C@@H](CCC(=O)O)C(=O)N[C@@H](CC(C)C)C(=O)N[C@@H](C)C(=O)N[C@H](C(=O)N[C@@H](CC(C)C)C(=O)N1CCC[C@H]1C(=O)N[C@@H](CCCNC(=N)N)C(=O)N[C@H](C(=O)N[C@@H](CCC(=O)O)C(=O)N[C@H](C(=O)NCC(=O)N[C@@H](CO)C(=O)NCC(=O)N[C@@H](CO)C(=O)N[C@@H](C)C(N)=O)[C@@H](C)O)[C@@H](C)O)[C@@H](C)O) [[N-terminal(C20 diacid-gGlu), des1, 30S, 31G, 33A]mimylin] | 265 | 102 |
| {C20 diacid-γGlu}-ASELSTAALGHLSAELHELATLPRTETGSGSP-NH2 [[N-terminal(C20 diacid-gGlu), des1, 12H, 30S, 31G]mimylin] | 230 | 48 |
| {C20 diacid-γGlu}-ASELSTAALGRLSAELHELATLPRTETGSGSG-NH2 (SMILES CC(C)C[C@H](NC(=O)[C@H](C)NC(=O)[C@H](C)NC(=O)[C@@H](NC(=O)[C@H](CO)NC(=O)[C@H](CC(C)C)NC(=O)[C@H](CCC(=O)O)NC(=O)[C@H](CO)NC(=O)[C@H](C)NC(=O)CC[C@H](NC(=O)CCCCCCCCCCCCCCCCCCC(=O)O)C(=O)O)[C@@H](C)O)C(=O)NCC(=O)N[C@@H](CCCNC(=N)N)C(=O)N[C@@H](CC(C)C)C(=O)N[C@@H](CO)C(=O)N[C@@H](C)C(=O)N[C@@H](CCC(=O)O)C(=O)N[C@@H](CC(C)C)C(=O)N[C@@H](Cc1c[nH]cn1)C(=O)N[C@@H](CCC(=O)O)C(=O)N[C@@H](CC(C)C)C(=O)N[C@@H](C)C(=O)N[C@H](C(=O)N[C@@H](CC(C)C)C(=O)N1CCC[C@H]1C(=O)N[C@@H](CCCNC(=N)N)C(=O)N[C@H](C(=O)N[C@@H](CCC(=O)O)C(=O)N[C@H](C(=O)NCC(=O)N[C@@H](CO)C(=O)NCC(=O)N[C@@H](CO)C(=O)NCC(N)=O)[C@@H](C)O)[C@@H](C)O)[C@@H](C)O) [[N-terminal(C20 diacid-gGlu), des1, 30S, 31G, 33G]mimylin] | 435 | 239 |
| {C20 diacid-γGlu}-ASELSTAALGRLSAELHELATLPHTETGSGSP-NH2 (SMILES CC(C)C[C@H](NC(=O)[C@H](C)NC(=O)[C@H](C)NC(=O)[C@@H](NC(=O)[C@H](CO)NC(=O)[C@H](CC(C)C)NC(=O)[C@H](CCC(=O)O)NC(=O)[C@H](CO)NC(=O)[C@H](C)NC(=O)CC[C@H](NC(=O)CCCCCCCCCCCCCCCCCCC(=O)O)C(=O)O)[C@@H](C)O)C(=O)NCC(=O)N[C@@H](CCCNC(=N)N)C(=O)N[C@@H](CC(C)C)C(=O)N[C@@H](CO)C(=O)N[C@@H](C)C(=O)N[C@@H](CCC(=O)O)C(=O)N[C@@H](CC(C)C)C(=O)N[C@@H](Cc1c[nH]cn1)C(=O)N[C@@H](CCC(=O)O)C(=O)N[C@@H](CC(C)C)C(=O)N[C@@H](C)C(=O)N[C@H](C(=O)N[C@@H](CC(C)C)C(=O)N1CCC[C@H]1C(=O)N[C@@H](Cc1c[nH]cn1)C(=O)N[C@H](C(=O)N[C@@H](CCC(=O)O)C(=O)N[C@H](C(=O)NCC(=O)N[C@@H](CO)C(=O)NCC(=O)N[C@@H](CO)C(=O)N1CCC[C@H]1C(N)=O)[C@@H](C)O)[C@@H](C)O)[C@@H](C)O) [[N-terminal(C20 diacid-gGlu), des1, 25H, 30S, 31G]mimylin] | 185 | 22 |
| {C20 diacid-γGlu}-ASELSTAALGRLS[dE]ELHELATLPRTETGSGSP-NH2 (SMILES CC(C)C[C@H](NC(=O)[C@H](C)NC(=O)[C@H](C)NC(=O)[C@@H](NC(=O)[C@H](CO)NC(=O)[C@H](CC(C)C)NC(=O)[C@H](CCC(=O)O)NC(=O)[C@H](CO)NC(=O)[C@H](C)NC(=O)CC[C@H](NC(=O)CCCCCCCCCCCCCCCCCCC(=O)O)C(=O)O)[C@@H](C)O)C(=O)NCC(=O)N[C@@H](CCCNC(=N)N)C(=O)N[C@@H](CC(C)C)C(=O)N[C@@H](CO)C(=O)N[C@H](CCC(=O)O)C(=O)N[C@@H](CCC(=O)O)C(=O)N[C@@H](CC(C)C)C(=O)N[C@@H](Cc1c[nH]cn1)C(=O)N[C@@H](CCC(=O)O)C(=O)N[C@@H](CC(C)C)C(=O)N[C@@H](C)C(=O)N[C@H](C(=O)N[C@@H](CC(C)C)C(=O)N1CCC[C@H]1C(=O)N[C@@H](CCCNC(=N)N)C(=O)N[C@H](C(=O)N[C@@H](CCC(=O)O)C(=O)N[C@H](C(=O)NCC(=O)N[C@@H](CO)C(=O)NCC(=O)N[C@@H](CO)C(=O)N1CCC[C@H]1C(N)=O)[C@@H](C)O)[C@@H](C)O)[C@@H](C)O) [[N-terminal(C20 diacid-gGlu), des1, 15e, 30S, 31G]mimylin] | 94 | 23 |
| {C20 diacid-γGlu}-ASELSTAALGRLSAELHELATLPRTETGTGTP-NH2 (SMILES CC(C)C[C@H](NC(=O)[C@H](C)NC(=O)[C@H](C)NC(=O)[C@@H](NC(=O)[C@H](CO)NC(=O)[C@H](CC(C)C)NC(=O)[C@H](CCC(=O)O)NC(=O)[C@H](CO)NC(=O)[C@H](C)NC(=O)CC[C@H](NC(=O)CCCCCCCCCCCCCCCCCCC(=O)O)C(=O)O)[C@@H](C)O)C(=O)NCC(=O)N[C@@H](CCCNC(=N)N)C(=O)N[C@@H](CC(C)C)C(=O)N[C@@H](CO)C(=O)N[C@@H](C)C(=O)N[C@@H](CCC(=O)O)C(=O)N[C@@H](CC(C)C)C(=O)N[C@@H](Cc1c[nH]cn1)C(=O)N[C@@H](CCC(=O)O)C(=O)N[C@@H](CC(C)C)C(=O)N[C@@H](C)C(=O)N[C@H](C(=O)N[C@@H](CC(C)C)C(=O)N1CCC[C@H]1C(=O)N[C@@H](CCCNC(=N)N)C(=O)N[C@H](C(=O)N[C@@H](CCC(=O)O)C(=O)N[C@H](C(=O)NCC(=O)N[C@H](C(=O)NCC(=O)N[C@H](C(=O)N1CCC[C@H]1C(N)=O)[C@@H](C)O)[C@@H](C)O)[C@@H](C)O)[C@@H](C)O)[C@@H](C)O) [[N-terminal(C20 diacid-gGlu), des1, 30T, 31G, 32T]mimylin] | 134 | 56 |

More lines, now with the values ahead:

| hAmylin-R funct. EC50 (pM), tested with HSA [1] [pM] | hCTR funct. EC50 (pM), tested with HSA [2] [pM] | Binder |
| --- | --- | --- |
| 100 | 44 | Ac-ASELSTAALGRLSAK([γGlu-C20 diacid])LHELATLPRTETGSGSP-NH2 [[N-terminal(acetyl), des1, 16K(C20 diacid-gGlu), 30S, 31G]mimylin] |
| 72 | 37 | Ac-ASK([γGlu-C20 diacid])LSTAALGRLSAELHELATLPRTETGSGSP-NH2 [[N-terminal(acetyl), des1, 4K(C20 diacid-gGlu), 30S, 31G]mimylin] |
| 47 | 22 | Ac-ASELSTAALGRLSAELHK([γGlu-C20 diacid])LATLPRTETGSGSP-NH2 [[N-terminal(acetyl), des1, 19K(C20 diacid-gGlu), 30S, 31G]mimylin] |

From patent US20160272683A1 (Novo Nordisk, published 2016)
